Assay results: the RNAGym collection of RNA variant scans (doi:10.7554/elife.80360)

B1: HDV Ribozyme (parent)
chain: GGCCGGCAUGGUCCCAGCCUCCUCGCUGGCGCCGGCUGGGCAACAUUCCGAGGGGACCGUCCCCUCGGUAAUGGCGAAUGGGACCCA

Variants of: B1
Test: self-cleavage, relative activity (ratio to wild type); higher = more cleavage; co-transcriptional

Variant | self-cleavage
G50A C57A | 0.972
G11A G29U | 0.12
G11U U79C | 0.0652
U23C G73U | 0.148
G17C G31C | 0.0475
C24G G35A | 0.124
G6C C57G | 0.396
U46C C85G | 0.675
G31U G81U | 0.23
C36A C48G | 0.203
C4U G5C | 0.166
G39A G81C | 0.113
G1A G74A | 0.0287
G1A G55U | 0.309
G31C G52U | 0.391
A16C C58G | 0.532
C19G C32A | 0.0462
G50C A56G | 0.734
A16U G73C | 0.437
G1C U60A | 0.237
A8C G25A | 0.172
C32G A51C | 0.0489
C19A C84G | 0.196
G53C G74A | 0.405

Variant | self-cleavage
A70G C84U | 0.743
G10C C84G | 0.578
C18U C19U | 0
C48U C58G | 1.06
G10A G52A | 0.749
C36U C86A | 0.747
G25C C48U | 0.26
C13A G31U | 0.0604
C22U G80A | 0.113
U37G G81C | 0
U23G G73C | 0.0773
G17A U37A | 0.0415
C30U C75G | 0.0554
C26U G67A | 0.947
C13G U23G | 0
G29C U65A | 0.095
C30G U46A | 0.0906
C57A C84G | 0.727
C44A G81A | 0.125
C26G U69A | 0.886
G38A A71G | 0.177
G25U G50A | 0.151
G10C U37C | 1.05
U27A C41G | 0.858

Variant | self-cleavage
G59A A71G | 0.984
U20A C61A | 0.111
A43G U79A | 0.192
A42C C58U | 0.322
U20C U47G | 0
G59A U72C | 0.607
C24U C44U | 0.434
G74C A87U | 0.304
C18G G53A | 0.175
C26G G82A | 0.813
A51G A70G | 1.16
G38A G73U | 0.0978
U9A U23A | 1.12
C41A U65G | 0.95
C33U A56U | 0.758
G40U G80C | 0.0692
U69G G76U | 1.01
G50A C84U | 0.754
G28U C86U | 0.0594
C15A C21U | 0.0415
G17A C21U | 0
G1A G50U | 0.128
G28U C41G | 0.116
C14U C85G | 0.712

Variant | self-cleavage
G10A G29C | 0.0767
C22G A51U | 0.0339
G38U G55U | 0.21
C26U G80A | 0.897
G11C G50U | 0.54
G1C G38U | 0.0396
U27C G80A | 0.237
C41G G68C | 0.483
G35U A70U | 0.496
C7G C24U | 0.0692
A56C G82C | 0.306
C19U A70G | 0.141
G80A C86G | 0.362
C7U U69C | 0.853
A8G C36A | 0.0386
G54U C84A | 0.724
A16G U65A | 0.974
C48G U60A | 0.864
C15U A56G | 1.35
A45G C66A | 0.812
G55U C57G | 0.997
A45U C57A | 0.906
C66A G82C | 0.34
C21U C32U | 0.205

Variant | self-cleavage
U23C A56U | 0.987
G10U C30A | 0.158
A56G G59U | 1.06
C22A G59C | 0.361
C26G G68A | 0.787
U9G G52A | 0.712
C44G A51G | 0.653
G29A A71G | 0.032
C61A A78G | 0.678
A45C U72A | 0.89
C32A U79G | 0.133
G40C U79C | 0.0509
C41U C57G | 1.09
C14A C64U | 0.743
U9G G81U | 0.437
G17A C48A | 0.506
A78G | 0.75
C15A C44A | 0.529
A42G G68C | 0.271
C18A G40A | 0.0426
C22G U72C | 0
G54U C61U | 0.895
C22U G67U | 0.548
G1U A71U | 0.424

Variant | self-cleavage
C14A C32G | 0.0573
G5A C21A | 0.0923
G2A G53C | 0.348
C41U C49A | 0.563
C19U A77G | 0.253
U23A G35C | 0.212
G39U G82U | 0.155
C18G A45G | 0.0639
C14U G74U | 0.733
C75A C85G | 0.116
A43C G80U | 0.0825
U27A C86U | 0.966
U46G A87C | 0.966
G50A G81C | 0.225
C32U G81C | 0.248
G25C G73A | 0.116
C61A U72G | 0.554
C14A G54A | 0.751
G39U A83G | 0.444
G6A G50C | 0.767
G1C G17C | 0
C32G A43G | 0.0489
U65A U79G | 0.492
C33G G82U | 0

Variant | self-cleavage
A45C U46A | 0.499
G1C A87C | 0.156
G52A C57A | 0.963
U20A C85G | 0.107
G31C C63G | 0.34
G25C G53A | 0
G28A C85U | 0.106
C62A G68U | 0.939
G2U G81U | 0.0198
C15U U69C | 0.643
G59C U65G | 0.95
G54C A56G | 0.808
C57U A70U | 1.05
C19G G54C | 0.0489
G50U C63U | 0.909
U23G A77G | 0.554
C14G C32A | 0.0554
C75G A77C | 0.128
A70G C86U | 1.23
U27A C58G | 0.831
C26U G31U | 0.762
A16G C24G | 0.178
C18A U20A | 0.0875
U60C G80C | 0.125

Variant | self-cleavage
G73C G76U | 0.659
G40U A71C | 0.327
G10U G28U | 0.109
A16G C63A | 1.03
G6A U27A | 0.514
U69A G74C | 0.297
C18A U65C | 0.101
U27C U37C | 0.856
C19G U37A | 0.0627
G17C U47C | 0.519
G17A A42G | 0.119
A45G A87U | 0.911
C41A C63G | 0.623
G39U G81U | 0.185
A16U U72C | 0.569
C13G G40C | 0.0396
G5U C41U | 0.415
U69G A77U | 0.375
C13G A78C | 0.0811
C13G C32G | 0
C15A A45G | 0.8
G25A C63A | 0.125
C21G C62G | 0.0755
C24A C49U | 0.623

Variant | self-cleavage
G1C C30U | 0.0755
G25C G81C | 0.0449
C19U A42C | 0.104
C15A C75U | 0.141
A16U C24A | 0.482
U20C C57G | 0.0723
G59C C63U | 1.11
C3U C33G | 0.0282
A45C A70U | 0.508
G11C C58G | 0.369
U12A G29U | 0.113
G28A C44A | 0.104
G28U U69G | 0.208
G39C C66U | 0.136
C7G U27G | 0.256
C7G U69C | 0.277
A42U G73A | 0.403
C7G A43U | 0.0573
G10A G50A | 0.657
C41A G53C | 0.848
C36U A51G | 0.652
A45G C57G | 1.01
U12C U79A | 0.0615
G34A G53A | 0.174

Variant | self-cleavage
G29C U47C | 0.0554
G40C C44U | 0.0627
G28C C62G | 0.0536
G28C G67U | 0
C13U U65A | 0.508
C36A G82A | 0.071
G1U G40C | 0.491
C41G G73A | 0.712
C19U C86G | 0.116
C44G A70U | 0.804
G29C C58G | 0.156
G10C A51C | 0.665
A16U U23G | 0.575
C3U G25A | 0.138
G1C G52C | 0.256
C4G C49A | 0.346
C49A A71U | 0.849
C24U G53C | 0.848
C21A G38C | 0.185
U47G C61G | 0.554
C14A U23C | 0.997
A43G U72A | 0.453
G28A C86U | 0.0369
G35A U65G | 0.554

Variant | self-cleavage
G35C C63G | 0.0449
C44A G68A | 0.704
A43U C48A | 0.424
G52U A70U | 0.831
G6C C7A | 0.772
G28C G52A | 0.119
C3A U47C | 0.422
U20C C64U | 0.244
G73C C86G | 0.415
U20C U69G | 0.0639
U20C G55C | 0.0791
A43C A70C | 0.35
C64G A87C | 0.778
C3U U27A | 0.701
A42G U65C | 0.643
A42G C84A | 0.554
G2C G55C | 0.0656
G2C G55U | 0.0346
U47G C57U | 0.985
C61G G80U | 0.275
A45U C85G | 0.847
C61G A70U | 1.04
C48U C86A | 0.985
G5U A45C | 0.0875

Variant | self-cleavage
A77C A87G | 0.208
C14U C66U | 1.25
G11U G53A | 0.427
G17A G40U | 0.562
G25C C58G | 0.161
C30A A51G | 0.361
G5A G11A | 0.101
C21A G54C | 0.0804
G28U A45U | 0.193
C3G G54U | 0.702
G2C C13G | 0.0504
G10C A16U | 1.49
G50A A56G | 1.15
C30U G68U | 0.594
A42U A56G | 0.306
C33U G82A | 0.302
G55C G80C | 0.388
C4G G52C | 0.383
G50C G54C | 0.32
G1U G11C | 0.288
C18G A70C | 0
G38A U46A | 0
C18G C66G | 0.0665
G2C G82A | 0.0462

Variant | self-cleavage
G82A A83C | 0.451
U65C G80A | 0.356
C49G C66G | 0.665
G34C C62G | 0.0639
C48G C64G | 0.266
C3A U9C | 0.381
G34C U46G | 0.0504
G34A C57U | 0.332
A56U U65G | 0.928
C21U U27G | 0.0755
C32A C36A | 0
G35U G39C | 0
G73U C84U | 0.256
A8C C15A | 0.199
G10A C58U | 0.972
A78U C85U | 0.18
C13A G76C | 0.386
G2C A71C | 0.0723
G76C U79G | 0.617
G67C C84U | 0.523
G39C G67A | 0.134
C21A C85G | 0
A42U U79A | 0.145
A42G G53A | 0.496

Variant | self-cleavage
G10U C49G | 0.391
A42C C44G | 0.217
C41A G52U | 0.772
G1U A42U | 0.332
G35A C66U | 0.655
A45C A87G | 0.554
G6C U79G | 0
A45C A83U | 0.356
A42C G59C | 0.397
C19G C26A | 0.104
G31C U37A | 0.115
C48U U79G | 0.665
C7A G52A | 0.629
U9G A16U | 1.14
U12G G67C | 0.962
U23G G59U | 0.886
G31U C75G | 0.148
C44A C58U | 0.689
C7A C64A | 0.227
C15G G34C | 0
A56C G73A | 0.658
G25U G67A | 0.227
